# According to publication PMC8472264:
# Molecular target: ArtB (untagged receptor-binding subunit of S. Typhimurium DT104 ArtAB) (Salmonella enterica Typhimurium DT104)
# Test: SDS-PAGE of unboiled samples
substance,measurement,value
ArtB (untagged receptor-binding subunit of S. Typhimurium DT104 ArtAB) (natural protein),stoichiometry N,5
